target: HLA-A*01:01; assay: IEDB peptide-MHC binding, purified MHC/competitive/radioactivity; ≥ and ≤ were set here for values at or beyond the usual limits of such assays; conditions: source organism: Homo sapiens

| IC50 [µM] | Sequence |
| --- | --- |
| 0.658 | FATCLGLSY |

target: HLA-A*01:01; assay: IEDB peptide-MHC binding, purified MHC/competitive/radioactivity; filed as Kd, often an IC50 or EC50 that approximates it; ≥ and ≤ were set here for values at or beyond the usual limits of such assays; conditions: source organism: Homo sapiens

| Sequence | Kd [µM] |
| --- | --- |
| LLGDNQIMPK | ≥ 36 |
| LVFGIELMEV | ≥ 36 |
| LYIFATCLGL | ≥ 36 |
| NYPLWSQSY | ≥ 36 |

Second part, the sequence after the results:

| Kd [µM] | Sequence |
| --- | --- |
| 12.5 | IFATCLGLSY |
| ≥ 36 | KMVELVHFLL |
| ≥ 36 | KVAELVHFL |
| 12.5 | LGSVVGNWQY |
| 2.98 | LVTCLGLSY |
